Experimental data as given in paper PMC7322680 (Biochemistry and Biophysics Reports, 2020).
Several values for one entry are separate records, joined by “and”; a condition that tells them apart may be missing. Identical values can stand only once.

Assays:
SEC-MALS = molecular target: the molecule itself; test: SEC-MALS
SEC = molecular target: the molecule itself; test: SEC

B1: human podocin domain (residues 126-350) (domain or fragment, UniProt Q9NP85 126-350, looked up)
chain: KVVQEYERVIIFRLGHLLPGRAKGPGLFFFLPCLDTYHKVDLRLQTLEIPFHEIVTKDMFIMEIDAICYYRMENASLLLSSLAHVSKAVQFLVQTTMKRLLAHRSLTEILLERKSIAQDAKVALDSVTCIWGIKVERIEIKDVRLPAGLQHSLAVEAEAQRQAKVRMIAAEAEKAASESLRMAAEILSGTPAAVQLRYLHTLQSLSTEKPSTVVLPLPFDLLNCL
stoichiometry N (SEC-MALS): ~16 and 25 and 13
stoichiometry N (SEC): 16
